*: point of attachment. βGlcNAc = CC(=O)N[C@@H]1[C@@H](O)[C@H](O)[C@@H](CO)O[C@H]1*
Experiments:
[1] = target: T1, human O-GlcNAcase (hOGA) Y69S (human) (UniProt O60502)
T1 sequence: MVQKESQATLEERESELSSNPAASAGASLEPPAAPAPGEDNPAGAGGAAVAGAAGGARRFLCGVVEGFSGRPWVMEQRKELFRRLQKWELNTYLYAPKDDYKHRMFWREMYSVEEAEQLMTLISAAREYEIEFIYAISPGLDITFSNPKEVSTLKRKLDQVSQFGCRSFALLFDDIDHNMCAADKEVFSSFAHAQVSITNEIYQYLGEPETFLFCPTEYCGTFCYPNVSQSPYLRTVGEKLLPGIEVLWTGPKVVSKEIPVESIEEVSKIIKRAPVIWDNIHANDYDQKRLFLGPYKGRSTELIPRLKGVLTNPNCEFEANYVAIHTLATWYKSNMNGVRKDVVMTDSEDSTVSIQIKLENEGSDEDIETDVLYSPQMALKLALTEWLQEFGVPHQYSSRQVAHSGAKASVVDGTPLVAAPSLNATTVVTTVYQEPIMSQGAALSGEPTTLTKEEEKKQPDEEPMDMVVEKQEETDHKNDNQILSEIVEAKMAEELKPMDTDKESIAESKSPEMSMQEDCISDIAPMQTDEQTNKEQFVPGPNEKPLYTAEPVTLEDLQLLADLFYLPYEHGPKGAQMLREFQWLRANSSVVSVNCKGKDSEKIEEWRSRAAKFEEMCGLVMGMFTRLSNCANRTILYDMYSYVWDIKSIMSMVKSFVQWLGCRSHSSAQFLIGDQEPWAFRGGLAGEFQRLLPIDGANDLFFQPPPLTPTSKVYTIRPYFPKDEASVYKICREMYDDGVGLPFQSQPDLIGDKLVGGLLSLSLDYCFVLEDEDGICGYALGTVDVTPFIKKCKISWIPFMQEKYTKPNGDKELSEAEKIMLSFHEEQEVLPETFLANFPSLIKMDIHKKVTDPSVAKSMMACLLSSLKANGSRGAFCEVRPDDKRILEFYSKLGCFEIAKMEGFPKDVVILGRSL

[2] = target: T2, human O-GlcNAcase (hOGA) Y69Q (human) (UniProt O60502)
T2 sequence: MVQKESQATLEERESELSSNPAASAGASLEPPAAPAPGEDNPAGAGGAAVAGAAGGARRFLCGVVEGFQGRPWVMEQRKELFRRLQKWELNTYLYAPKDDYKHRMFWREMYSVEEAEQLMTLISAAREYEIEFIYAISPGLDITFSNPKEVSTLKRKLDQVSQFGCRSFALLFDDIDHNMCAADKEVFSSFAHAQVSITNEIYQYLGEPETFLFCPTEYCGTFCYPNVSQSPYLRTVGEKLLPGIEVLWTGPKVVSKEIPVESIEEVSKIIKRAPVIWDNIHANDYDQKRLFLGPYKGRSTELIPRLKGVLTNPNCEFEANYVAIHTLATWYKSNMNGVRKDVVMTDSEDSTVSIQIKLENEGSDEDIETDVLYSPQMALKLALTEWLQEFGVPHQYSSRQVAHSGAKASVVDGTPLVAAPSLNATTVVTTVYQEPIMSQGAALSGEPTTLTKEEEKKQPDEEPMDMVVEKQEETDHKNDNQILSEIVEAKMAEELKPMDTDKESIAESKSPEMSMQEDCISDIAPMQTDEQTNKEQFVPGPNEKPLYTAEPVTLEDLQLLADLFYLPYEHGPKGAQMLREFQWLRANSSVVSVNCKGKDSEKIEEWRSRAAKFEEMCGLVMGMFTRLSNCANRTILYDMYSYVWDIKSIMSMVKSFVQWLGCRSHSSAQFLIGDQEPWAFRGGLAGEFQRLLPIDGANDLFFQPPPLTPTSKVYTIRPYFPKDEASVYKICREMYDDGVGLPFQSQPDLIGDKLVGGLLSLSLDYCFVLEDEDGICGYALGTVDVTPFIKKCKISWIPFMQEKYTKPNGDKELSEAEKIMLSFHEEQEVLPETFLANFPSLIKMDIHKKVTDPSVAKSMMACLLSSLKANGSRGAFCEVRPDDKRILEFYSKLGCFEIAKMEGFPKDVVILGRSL

[3] = target: T3, human O-GlcNAcase (hOGA) Y69K (human) (UniProt O60502)
T3 sequence: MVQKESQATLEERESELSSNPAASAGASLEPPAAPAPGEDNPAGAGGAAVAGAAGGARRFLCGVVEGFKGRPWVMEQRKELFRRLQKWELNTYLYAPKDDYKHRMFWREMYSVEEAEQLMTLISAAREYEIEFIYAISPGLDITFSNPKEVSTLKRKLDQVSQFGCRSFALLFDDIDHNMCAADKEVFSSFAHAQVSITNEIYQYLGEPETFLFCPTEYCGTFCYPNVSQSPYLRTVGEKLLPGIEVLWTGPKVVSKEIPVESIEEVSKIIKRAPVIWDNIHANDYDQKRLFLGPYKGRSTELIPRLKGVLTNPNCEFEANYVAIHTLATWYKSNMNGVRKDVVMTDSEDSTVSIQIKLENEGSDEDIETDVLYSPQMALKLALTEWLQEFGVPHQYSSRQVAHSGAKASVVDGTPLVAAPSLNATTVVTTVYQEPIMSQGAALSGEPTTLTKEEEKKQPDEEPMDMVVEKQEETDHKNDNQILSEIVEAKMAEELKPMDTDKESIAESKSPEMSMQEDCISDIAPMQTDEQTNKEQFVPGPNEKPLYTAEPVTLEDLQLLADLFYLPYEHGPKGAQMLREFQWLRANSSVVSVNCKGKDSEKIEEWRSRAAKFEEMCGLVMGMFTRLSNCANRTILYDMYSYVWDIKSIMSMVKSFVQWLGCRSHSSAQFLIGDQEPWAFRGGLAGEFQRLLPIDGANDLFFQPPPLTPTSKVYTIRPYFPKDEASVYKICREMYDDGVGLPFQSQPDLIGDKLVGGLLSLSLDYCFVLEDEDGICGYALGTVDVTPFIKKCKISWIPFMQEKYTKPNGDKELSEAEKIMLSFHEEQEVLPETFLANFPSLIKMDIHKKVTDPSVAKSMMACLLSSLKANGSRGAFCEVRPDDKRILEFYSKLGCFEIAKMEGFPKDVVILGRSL

B1: TAB1 peptide PVSVPYS(O-GlcNAc)SAQSTS (peptide)
peptide: Ac-PVSVPYS(βGlcNAc)SAQSTS-NH2
SMILES: CC(=O)N[C@H]1[C@H](OC[C@H](NC(=O)[C@H](Cc2ccc(O)cc2)NC(=O)[C@@H]2CCCN2C(=O)[C@@H](NC(=O)[C@H](CO)NC(=O)[C@@H](NC(=O)[C@@H]2CCCN2C(C)=O)C(C)C)C(C)C)C(=O)N[C@@H](CO)C(=O)N[C@@H](C)C(=O)N[C@@H](CCC(N)=O)C(=O)N[C@@H](CO)C(=O)N[C@H](C(=O)N[C@@H](CO)C(N)=O)[C@@H](C)O)O[C@H](CO)[C@@H](O)[C@@H]1O
[1]
  KM of the glycopeptide substrate (substrate competition assay with 4MU-GlcNAc as reporter substrate): > 4 mM
[2]
  KM of the glycopeptide substrate (substrate competition assay with 4MU-GlcNAc as reporter substrate): 3.6 mM
[3]
  KM of the glycopeptide substrate (substrate competition assay with 4MU-GlcNAc as reporter substrate): > 4 mM

Source: paper PMC3476531, “Synergy of Peptide and Sugar in O-GlcNAcase Substrate Recognition” (Chemistry & Biology, 2012)
